Patent US9486502B2, “Methods of administering interferon gamma to absorb fluid from the subretinal space” (The United States of America, as represented by the …, priority 2008, dated 2016)

What was measured:
hfRPE monolayers = assay: electrophysiology of hfRPE monolayers (TEP, RT, VA, VB, RA/RB); type: cell-based, human
Excerpt: Equivalent circuit analysis and electrophysiological methods have been previously described in Quinn, R. H., et al., Invest Ophthalmol Vis Sci, 1992, 33, 3513-3527; Joseph D. P., et al., J Physiol, 1991, 435, 439-463; and Maminishkis, A., et al., 2006, Ophthalmol Vis Sci, 47, 3612-3624each incorporated herein by reference in its entirety.
Briefly, confluent monolayers of cultured hfRPE were mounted on a nylon mesh support and clamped into a modified Üssing chamber that allowed the rapid exchange of Ringer's solution (≈10 chamber volumes per minute) and the measurement of fast electrical changes in seconds. The electrical connections to the apical and basal chambers were made with Ringer-agar bridges in series with calomel electrodes. Intracellular potentials were recorded with conventional microelectrodes, back-filled with 150 mM KCl, with resistances of 80 to 200 Ma The apical and basolateral membrane potentials (VA and VB) are calculated as the voltage differences between the intracellular microelectrode and the apical and basal bath electrodes, respectively. The resistances of the apical and basolateral membranes were designated RA and RB, respectively, and the transepithelial potential (TEP=VB-VA) is the voltage difference between the apical and basal bath electrodes. Epithelial resistance parameters were obtained by passing 4-μA bipolar current pulses (i) using Ag—AgCl electrodes, one located in the apical chamber and the other located in the basal chamber. The total transepithelial resistance (Rt) is calculated from the current-induced changes in TEP (Rt=ΔTEP/i). The apparent membrane resistance ratio (RA/RB) is calculated from the ratio of change in VA to change in VB (RA/RB=ΔVA/ΔVB).
The control Ringer's solution for measurements of TEP and Rt in culture hfRPE contained 116 mM NaCl, 5 mM KCl, 26.2 mM NaHCO3, 1 mM NaH2PO4, 1 mM Mg Cl2, 1.8 mM CaCl2, 10 mM glucose, and 2 mM Taurine. The osmolarity of control Ringer's solution was 295 mOsm. The solutions were maintained at 35° C. and a pH of 7.4, and were bubbled with 10% O2, 5% CO2 and 85% N2. 8-Bromo-cAMP (or Dibutyryl cAMP), 8-Br-cGMP, and forskolin were obtained from Sigma-Aldrich.

hfRPE cells = assay: cyclic AMP assay (cAMP-screen ELISA); type: cell-based, human; conditions: IFNγ 0.5, 5, 50 ng/ml, all time points
Experimental: Intracellular cAMP levels were assayed with a cAMP-screen ELISA system (Applied Biosystems) following the manufacturer's protocol. Briefly, confluent monolayers of hfRPE cells cultured in 24-well plates were starved in SFM for 4 hours and then treated with IFNγ (0.5, 5, and 50 ng/ml), forskolin (10 μM), or forskolin (10 μM) and isobutylmethylxanthine (IBMX; 0.5 mM) for 5 minutes, 30 minutes, 4 hours, 16 hours, or 24 hours. For some of the experiments, cells were treated with IBMX (0.5 mM) for 30 minutes, and then IFNγ or forskolin was added. Cells were lysed and the supernatant collected after centrifugation. Samples were incubated with anti-cAMP antibody and cAMP-AP in a 96-well assay plate; serial dilutions of cAMP served as standards. The plate was incubated with substrate and the chemiluminescence signal measured with a SpectraMax M2 microplate reader (Molecular Devices). The standard curve was obtained by best fit with a weighted 4-parameter logistic curve and the cAMP concentration was calculated and normalized with total protein concentration.

hfCHC cells = assay: BrdU incorporation assay, human fetal choroidal cell proliferation; type: cell-based
[1] = IFNγ 100 ng/ml apical and basal, FIG. 17A
[2] = IFNγ 500 ng/mL apical and basal, FIG. 22

B1: IFNγ: pleiotropic cytokine produced by T- and NK-cells; obtained from Peprotech (protein, UniProt P01579 24-161, looked up)
Interferon gamma: QDPYVKEAENLKKYFNAGHSDVADNGTLFLGILKNWKEESDRKIMQSQIVSFYFKLFKNFKDDQSIQKSVETIKEDMNVKFFNSNKKKRDDFEKLTNYSVTDLNVQRKAIHELIQVMAELSPAAKTGKRKRSQMLFRG
- RT decrease (hfRPE monolayers; [1]): 15 Ω·cm^2
- TEP increase (hfRPE monolayers; [1]): 0.9 mV
- depolarization of both VA and VB (hfRPE monolayers; [2]): approximately 2.5 mV
- increase in RA/RB (hfRPE monolayers; [2]): 0.2
- increase in TEP (hfRPE monolayers; [2]): 0.3 mV
- ΔRT (decrease) (hfRPE monolayers; IFNγ, mean of experiments): 17±2 Ω·cm^2
- ΔTEP (increase) (hfRPE monolayers; IFNγ, mean of experiments): 0.5±0.1 mV
- effect on total intracellular cAMP (hfRPE cells): no apparent effect
- effect on hfCHC (human fetal choroidal) cell proliferation (hfCHC cells): stimulatory effect
